The nature of the data set: protease stability score; higher = more stable; yeast display proteolysis, trypsin and chymotrypsin.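 Further: relative to predicted unfolded state with 0 unfolded-like and 1 meaning tenfold more protease.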
Take “DEEDEILRHFLEEFWRAIRTGDEDTLMHLMDPHAKEEVNGRELHGRHEISRHLVKLGIKHMHIDDSKRYGDKITLHITVEVNGRKIDLEVYAIKVDGRWKIEHSQIK”: the protease stability score amounted to 1.05.

“TEEDEMVHRQTEILEESIVTGDWKTLRNFVDPNMRLEIGDKTVHGWHAMSHILRRIDHINSVELHKVEVYGEKVHVDTIVDGIVDGRRTHLRTHIIALKFNGRWILTSNKIE” yielded a protease stability score of 1.03.

As for “DHQEHIIKVSLEILLESARTGDERSLERLFDPNVRIINENEERHGREALEILLKRIDHIHHLNIRDTRIQGDFLITEVHVRINVNGVHIQNDMVLYAWKVNGRWHIRSIEFK”, the protease stability score came out at 1.39.

Turning to “TEHDHDTERAFKEWFDVVRTGDFHRLERMLDPNVLSRIDGKLIHGRERLLKFWQEYLEHLGANHHEIHHVDIQGDKINIDIRVEYGDKRFTVHVHASKINGQWRVHENEKQ”, the protease stability score was 1.02.

“SEEEESAKIAIKVMLHSLHTGDEHTMSRLMDPNAREIINGRHNHGREVILEFLRRLGFTKVEIKDFRLTHMSVQGEFVFVHGTTNGEFNGVDTNVDLEIVVLKVDGRWTIQSVFYR” gave a protease stability score of 1.67.

Sequence “SEEHEMLKRIMELVIHLFLTGNEDWLRELIDPDTRLHINGVDNHGREEAIRWLHEYNKHLRIHTMEIKRLDVVNGQAHSHVHHEWTINGKQHETEMELIVVVVNGKVKSQELRIK” returned a protease stability score of 0.629.

With “DELEDDSRRAMETLIEIEKTGDWDLMYQLADPHVKLDINGRIIHGRDEFERRIHEHLTELGIKHHHVKHFQIRIVDGRMEVRLDGILRFNGKDLDVEIVLIVLKVNGRWLLEHSSVKYK”, the protease stability score came to 1.38.

“DEEHKIIRDFADEFWHWHLTGNFEEIAKNMDPNVRYEIRIGDKVILHIGMEDVERYLREEIHKFKNLTEDLESKHVVGNKLHLDARLNWNGKTVDIHIEIVVVNGRFKTVTIHIR” gave a protease stability score of 1.36.

“DETKDDSDWAVELWEKLFKTGDEHLHERLADPHTRKEVGDKEFHGRELILKQFVEFVEKVKNIQLEFTHVKEQGEKVEMDTTLRIDGVRIRTKMIALKIDGVWLVKIIHIE” had a protease stability score of 0.964.

As for “TKEEDLMELALRIIERVNETGDEQELHDRLDPHTQIEIGDKNEHGWEHIVHVMRHIRIEQIRFRDRRVQGDKVHVFVESEIRVGEKQLHVKVDIYVWKFDGRWIMTRMRVE”, the protease stability score came out at 1.33.

As for “DEEEEYAIEFVILHIEALKTGDERKLEHLMDPHYKLDYNGRKVHGREQWLRFLNEWRVHIHDIKVDDHDVVNGRVILHVTIHGTVIFDGRNIRTHHEQEYVLHKVNGRWHFHSMIVR”, the protease stability score came to 1.5.

Regarding “DEDEHLLEMALKYFLRHWKTGDEEMIMHLADPNVRLVVGDKKHHGREELFRFVHEMGANHIEVRDSELQGNKLILHLEVNVGDKRHDIKVVIEKIDGRWHLHSLEHR”, the protease stability score was 1.65.

Regarding “DHEREDMRRFVQEVLRVIETGDEDIYMRLLDPHYKVDFNGREIIGREELLRFFRDLGVDRIEADKEDVRSQGDKVITNTHITVNGRRIEMRVIVIKIDGQWVLHSLEFR”, the protease stability score was determined as 1.2.

As to “SEDEHFFRLVTRWIVRALLTGDEDSLQELLDPHVKFEINGRDFHGRESVYRAVLEIRRNDLRMKREHYHVQGDFVRSELTIEEELVIGDKIVTIESRLLLIILKINGRWYLEKMEVHFK”, the protease stability score amounted to 1.41.

For “DEDKTNLDMALRLLKEVTETGDEETLLKMMDPNVRIIINGRDVHGRENAERFATEWSRKVKNATLEVKDFHSQGEKVHLLGHDIFNGREIEFRIIWVKYNGRWFIHEIIFI”, the protease stability score worked out at 1.3.

Regarding “DEDDELKKTAVHDFTRDIATGDEESLHKLVDPHVRTTFDGQDLIGREHMWEHIHRLLRRYKNIRSEHIHIREIHVVDGVVESHTHIHMRIGEFKFIFNVHVFILKVDGVWFVHEAHYV”, the protease stability score stood at 0.886.

The sequence “DELQKMAKHWIELMIRAQETGDEEELKKYLDPDVRIDVDGRELHGREKADELLKEIRIHEFEIKHMRFQGDKLHLHGTDNQRQGNYEYHVEVTYHLIKINGRWSLREIRVE” had a protease stability score of 0.637.

“DEDERLLRDHLKLFQDAVRTGDEEVLSELLDPNVRLHIGDKTIHGREIVIDILRTEMRHLGVDYDETHLHHINIQGEWVHLHTELRLKVNGQRITLWTRLYLYKIDGKWIVTQIQLH” had a protease stability score of 2.3.

For “TEEETRLREFMDRLLKIITTGDEKRFKDLADPHVRLFIDGVTIHGRDEAHEMWEIFGMKVKSTHVHEIHIQGDKVNIDTRLSGHFNGRDHIWEAHIYVVKIDGRWILEYIEIR”, the protease stability score came to 1.94.

The sequence “SEEQEKSEEFWRLVVEFLLTGDEHQILNLLDPNVLTEIGDKKYHGRELASEVLRRYADEIRLKEVELHDRDEVNGVLHLHTVVRGEYNGREINLESHWELEKVDGRWHIKRVEIR” gave a protease stability score of 1.6.

Consider “DDLEHSSETFEKLWLESVFTGDWRSLLEMLDPHARLVINGRDFIGRELVKETLKEFLDRVPNMTLKLEDREVHIQGDKARIELHTRLEVGDKTVDTRIELIVNKIDGRWLLESQIIRIH”, for which the protease stability score was 1.08.

In turn, “DHHEEIMVTIMELLVRWLETGDEKSLVELLDPDVRHDVNGVDLHGREHVSRWMREHLERYDHLEVEITHIEVQGDKVHLDGTLILIFNGRNVVMKVHIHTIIVNGRAHELRFRTE” came in with a protease stability score of 0.698.

The sequence “TEEEEELRRIEHLTIELIETGDEDTLKRLADPNARLNIEFNGVHIHSHGREEMARLLHEWYRTMGIKHEELKRSEIQGDKVILHTELRIGDKTVSTIIITLVINGRIKWIRIIIK” gave a protease stability score of 1.36.

Regarding “DEEHQSLRHIAEILLESWETGDFERVWKFADPHTRVDFNGREKHGMHHVHEMFHILGIDHIELRHMEVINGRINSDGHVEVNGQRHRMHLTIFVFDGRLTEVRFDYE”, the protease stability score turned out to be 2.

In the case of “HDRKREIDHVLKLWINHFKTGDEDFHERNMDPHVRLHQGNYETHGREEVKKFLKRLFDEFGADHIHIRDYRIDVQGDKITIVMEVEIRVGNYRIDIEFILYVAKVDGKWHVHHYEIRNH”, the protease stability score came to 1.06.

As to “DEWDEKLHHFFELMSHAMETGDEHMQDELADPHVRLIINGVDYIGRERFREMVKRVDYFSVRDIHFKDKEIQGDFIHFRGTLNGEEIINGVRIEKEVDFKLLILKVDGRWFLESEERR”, the protease stability score came to 0.668.

In turn, “TESEKMALIAIEIIFHDLLTGNEESLIKLADPDVQLHYGDKTFHGREEFHKLYSEIIKRYDHIEVLIRDIRVQGDKMHVKEELNLVINGKTVHLESNRTSLKYNGRWHLKSVHLH” returned a protease stability score of 1.26.

The sequence “HEDEEWAEKMVREFLEATRTGDFESTLQLADPHVRFIINGKDIHGMEDWQEHLEHIRIQYHDIRIEHREVIGDKIYVKTRIDVTIHINGRKHRTVLDVEFIIHKVNGRWIIRELEIR” showed a protease stability score of 1.61.

With “DEEEKLEEDLARFWVTLLKTGDEEVIRHLADPHVREDWDGVHIHGREHVAKYLSQIKNVTWEIKEVRIYNGRTEIDARHHVNGRDEHVRIHIEVFNGKVRRLRFEKR”, the protease stability score is 1.5.

In turn, “HDRNEIIREALRILIHSILTGDEDHLREFADPHVKSDINGQEFHGREVFFMWLLHMRIQTVTIKHVDVQGEKARVYSSIHGDVDGQRTEYHTEIFSQKVNGRWIIRTIRVE” returned a protease stability score of 1.16.

Consider “HEEKHEVQRFLEMLIELLVTGNEEILEHLADPHVRLEIDGRHFHGWKEFTRQYSELLKKLGADHVDMKIHEVHIIGDKVFIRGTDEFRVGDKTERKESHWVLLKVDGRWFIHSVKIG”, for which the protease stability score was determined as 1.99.

“TEEHEDIMHFILEWTNSLLTGDFKRVKEMADPHVRVLIVIGDKELHLHGREWILKRTHDIVREMRVEIILHHVDSQGNFAHVDSTLRIEVDGVRFERKTRIHMDIVNGKLKSHEHRIE”: the protease stability score was 1.29.

In turn, “DEHKHIAEEIARIVLENWMTGNEEIFKKMADPHVRVHINGKKSHGRDHYHELWRLLFEHIRIEHLHIRHMDKQGDFVRVEVEVTGHIDGRRETVESEFRIRTVNGVLRDVEIHFH” showed a protease stability score of 1.2.

In turn, “SEEEEEARKFSEDLIRSTRTGDEKAWNDLLDPDVRIDINGKTHHGREEFLKLLQHLRERADHWRIELKHTDVYDGKVHHDIHVQISVGDKTFHHRIHLIVVKIDGKWLLKRVDVR” yielded a protease stability score of 2.16.

Sequence “TDLEELFDYAIDLLRSLLLTGDEHMSVRLADPNTKLEVNGRYIHGREKFREWFRWFLEHLRFDHLHIHSVETQGDYAFMDSRVHLRYGDKVIEFITHQIVLKFDGRWYLHSMEIR” registered a protease stability score of 0.587.

In the case of “DEDHHLVQLASEIVSKLIHTGDEEMIYHLADPHTRNDVNGKVFHGRDEMLKYLHDRWRHFGVERINHIVHHIRVVDGRADIDGRLHVGDKDFTVHIHMEKVNGRWVIKEIRIK”, the protease stability score came to 0.68.

Take “EERKESIRLAVEMIEHVFKTGNPEDEMSLFDPHAKLDVGDKHFHGREEYSRWSEEVRRRYGADHIEFRIEDVHSQGDFVDIHGKEVYIYNGVTFVIDVHFHVLKVNGRWLIKHIRIN”: the protease stability score was found to be 1.3.

Take “DHKEARDVAQTMMHLLKHGDFEQIVRNADPNAHFVVGDKEYHGRDNLRKVLKRLHDQVDHISFRTYKVDEDTAKLDATVQINGRNYRMDVLVHFHNGRIKDLNIKVTDEDTQREADK”: the protease stability score was found to be 1.57.

For the sequence “DETERWAHLMLKLMQRYQETGDEDSLLELMDPEAKIDINGKEIHGREEWREHRYHHLRELGHTNIDVRVHLRRMHNVGDKANVRGELRININGKKLSVDVIIIILKIDGRWVIESLRLE”, the protease stability score was 0.736.

“DDIKEESRHAHEEMLKIIKTGNEEVFEEMADPDVRIILDINGRDVRSHGREEAVRFWHEFMERVKGLRIHTDDLIVVGDKIELRIHSRYNGVRTHIRMIVSKFDGVWLLTELEIRVV” came in with a protease stability score of 1.75.

Regarding “HEMQEEAHIATELIIDTFKTGDEKKMRELFDPTPRLHQGDKRFHGREEVVHIISERIHRFGFNHIEVKTVRVQGDFIIVHGEKDVNGQRVEVILHIWKYDGRWEVHRIEIR”, the protease stability score turned out to be 1.23.

Sequence “SEDEEFARTAVELVSEAWETGDENLEEHLLDPNVKIDIGDKELHGMESSIKYWREIRIHLLHVEIHSVEFFDGRVILDTRFKFDGDFDGKRIERSSTMIWIAHKVDGRWRVHHMENR” gave a protease stability score of 1.25.

“EEELELAKKIADTFNHDMETGDEKSRWDLFDPNVRIDWNGKDLHGWEQEEEELERLGITKVELEIKRKEVQGDKVILDGTVRFNGRSTRVHVHIRVVNGRLKSIKIIIR”: the protease stability score came to 0.345.

Sequence “DEEDKDLHRWLEESTHAMLTGDEQHLTELADPNVKFNFDGREIHGREEYVKFMHRWIRHAGFKHIHVETKDVRVQGNKLHVDTHSIHDYNGRRVRTDTRVFVEKINGRWRLHSIEIE” showed a protease stability score of 1.4.

Regarding “SEMEDIAEEWAELILHLWHTGDEDKLWKLADPNTREHVNGRNLHGREEIVRIIVHEMVEMRIKFRPHDVRVQGDKVIIDGIKEIHIDGKEIRIRIEIVIVVINGRYHSSELTVH”, the protease stability score worked out at 1.04.

With “DESEESALKFLKEWREHFRTGNEDHMEELADPNVRVVIGDKEYHGWEETSRLISEKLRHMRVKFVLHTIRVVDGRIHVKSSLIIEVGDKELRVETSYHFEKVNGRWRLRVIHQE”, the protease stability score was determined as 1.27.

“HDEEKHDREYVEEMLEVWLTGDFDRIMHLFDPNARQEVNGVDIVGRERLHEFNRRWEEDMGFDHSHTHHVEVVNGRVHSDTRVHFNGREMETHLDLRVVNGRIKSIRVSYN”: the protease stability score was 0.094.

The record behind these values is the NTF2 design screens of Basanta et al. (2020).
